Laboratory results published in article PMC3265570 (Nature structural & molecular biology, 2011).
No end group written: not given here.

Target: full-length Crk-II (SH2-nSH3-cSH3) (UniProt Q64010-1 1-304)
Test: other fluorescence titration

Chain of full-length Crk-II (SH2-nSH3-cSH3) (Q64010 whole entry): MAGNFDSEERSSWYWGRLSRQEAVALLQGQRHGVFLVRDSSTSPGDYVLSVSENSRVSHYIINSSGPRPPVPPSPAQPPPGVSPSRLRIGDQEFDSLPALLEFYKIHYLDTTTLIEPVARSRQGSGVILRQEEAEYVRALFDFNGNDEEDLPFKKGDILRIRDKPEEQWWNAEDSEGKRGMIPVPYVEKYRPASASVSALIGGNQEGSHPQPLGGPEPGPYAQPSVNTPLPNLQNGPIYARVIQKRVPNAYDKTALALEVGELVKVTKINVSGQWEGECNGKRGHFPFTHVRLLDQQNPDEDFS

Kd: 286 ± 19 nM
B1: fluorescein-labeled C3G-derived ligand (peptide)
peptide: HPPPPLPPKRRK(fluorescein)G-NH2
